The target of this test is human FcγRIa expressed on transiently transfected CHO-S cells (human) (UniProt P12314). Briefly: flow cytometry, CHO-S cells transiently expressing human FcγRIa, PE-conjugated goat anti-human IgG F(ab')2, % PE+ cells. On the technique in general: Flow cytometry measures light scatter and fluorescence of single cells or particles in a stream.
Chain of human FcγRIa expressed on transiently transfected CHO-S cells (human) (P12314 16-374): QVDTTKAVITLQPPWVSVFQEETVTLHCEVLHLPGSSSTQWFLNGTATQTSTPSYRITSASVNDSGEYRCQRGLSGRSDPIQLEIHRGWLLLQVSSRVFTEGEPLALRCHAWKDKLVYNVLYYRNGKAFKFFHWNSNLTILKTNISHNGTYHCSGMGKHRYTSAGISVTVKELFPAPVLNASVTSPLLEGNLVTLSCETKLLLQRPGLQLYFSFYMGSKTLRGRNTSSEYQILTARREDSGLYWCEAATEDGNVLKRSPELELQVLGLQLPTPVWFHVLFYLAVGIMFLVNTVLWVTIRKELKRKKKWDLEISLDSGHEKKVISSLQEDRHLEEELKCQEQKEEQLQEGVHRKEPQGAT

The substance nivolumab (antibody) displayed an EC50 (read off the curve) of 0.2 µg/mL.

Usually EC50 (read off the curve) stands for the midpoint of the concentration-response curve. The low end stands for greater potency, the high end for weaker potency.

The record behind these values is patent US20240327544A1.
